{
  "source": "paper doi:10.1101/2025.11.29.689641",
  "target": "SoP450 from Shimazuella soli (CPR-containing self-sufficient cytochrome P450, homologue of P450BM3) (Shimazuella soli)",
  "assay": "SEC",
  "data": [
    {"substance": "SoP450 from Shimazuella soli (CPR-containing self-sufficient cytochrome P450, homologue of P450BM3) (enzyme)", "values": [
      {"measurement": "stoichiometry N", "value": 2}
    ]}
  ]
}
